Data set [1] deals with T1, PrimPol1-475 (RBM deleted) (Homo sapiens, UniProt Q96LW4 1-475).
T1 sequence: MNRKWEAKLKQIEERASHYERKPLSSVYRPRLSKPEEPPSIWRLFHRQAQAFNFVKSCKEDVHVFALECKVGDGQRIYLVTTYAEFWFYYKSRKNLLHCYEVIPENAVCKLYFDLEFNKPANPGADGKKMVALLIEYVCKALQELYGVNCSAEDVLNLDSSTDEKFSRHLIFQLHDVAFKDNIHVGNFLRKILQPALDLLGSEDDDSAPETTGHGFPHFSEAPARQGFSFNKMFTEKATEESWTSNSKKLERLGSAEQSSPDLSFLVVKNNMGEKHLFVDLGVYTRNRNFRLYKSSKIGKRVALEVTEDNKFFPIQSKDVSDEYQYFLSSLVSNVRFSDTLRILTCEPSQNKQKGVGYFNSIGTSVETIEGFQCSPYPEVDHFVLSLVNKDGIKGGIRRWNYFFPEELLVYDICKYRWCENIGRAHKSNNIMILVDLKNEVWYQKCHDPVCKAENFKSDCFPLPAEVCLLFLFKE
Description: EMSA; 1 mM Mn2+, 1 mM ATP, 200 uM dNTPs, 8 C; EMSA: 40 mM HEPES pH 7.0, 50 mM KCl, 1 mM DTT, 5% glycerol, 0.1 mg/ml BSA, 1 mM MnCl2, 300 nM DNA, 24 C 20 min then ice (RPA assays: 50 nM DNA, 25 nM RPA, 8 C); 5% native PAGE, 0.5x Tris-glycine pH 8.3, 4 C. As to conditions: protein: recombinant; tags: N-terminal SUMO-HIS10; label: 32P. On the technique in general: A gel shift assay detects complexes by their altered migration in electrophoresis.

Data set [2] concerns the target T2, PrimPol WT (Homo sapiens, UniProt Q96LW4 1-560).
T2 sequence: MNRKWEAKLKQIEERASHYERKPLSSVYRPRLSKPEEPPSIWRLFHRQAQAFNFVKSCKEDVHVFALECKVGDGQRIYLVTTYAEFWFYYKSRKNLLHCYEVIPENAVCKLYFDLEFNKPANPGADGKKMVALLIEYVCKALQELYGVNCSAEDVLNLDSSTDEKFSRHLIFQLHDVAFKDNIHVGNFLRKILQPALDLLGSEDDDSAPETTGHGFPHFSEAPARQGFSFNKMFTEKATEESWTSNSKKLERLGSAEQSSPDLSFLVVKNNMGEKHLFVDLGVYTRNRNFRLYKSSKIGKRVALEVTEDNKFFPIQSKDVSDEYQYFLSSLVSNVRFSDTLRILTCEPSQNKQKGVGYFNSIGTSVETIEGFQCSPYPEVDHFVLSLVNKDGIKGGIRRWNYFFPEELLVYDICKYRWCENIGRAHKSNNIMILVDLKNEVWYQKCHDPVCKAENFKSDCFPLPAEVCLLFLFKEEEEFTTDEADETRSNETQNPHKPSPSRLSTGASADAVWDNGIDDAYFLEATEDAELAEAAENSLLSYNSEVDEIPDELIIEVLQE
The description is as above. Particulars: protein: recombinant; tags: N-terminal SUMO-HIS10; label: 32P.

The target in the next data set is PrimPol WT;RPA (Homo sapiens;Homo sapiens, UniProt Q96LW4;P27694;P15927;P35244 1-560;1-616;1-270;1-121, |). Description: EMSA; PrimPol added to preformed RPA:DNA; 1 mM Mn2+, ATP, dNTPs, 8 C; EMSA: 40 mM HEPES pH 7.0, 50 mM KCl, 1 mM DTT, 5% glycerol, 0.1 mg/ml BSA, 1 mM MnCl2, 300 nM DNA, 24 C 20 min then ice (RPA assays: 50 nM DNA, 25 nM RPA, 8 C); 5% native PAGE, 0.5x Tris-glycine pH 8.3, 4 C. Particulars: protein: recombinant;recombinant; tags: N-terminal SUMO-HIS10;; copies: 1;1;1;1; label: 32P.
Chain of PrimPol WT;RPA (P27694 whole entry, chain 2 of 3): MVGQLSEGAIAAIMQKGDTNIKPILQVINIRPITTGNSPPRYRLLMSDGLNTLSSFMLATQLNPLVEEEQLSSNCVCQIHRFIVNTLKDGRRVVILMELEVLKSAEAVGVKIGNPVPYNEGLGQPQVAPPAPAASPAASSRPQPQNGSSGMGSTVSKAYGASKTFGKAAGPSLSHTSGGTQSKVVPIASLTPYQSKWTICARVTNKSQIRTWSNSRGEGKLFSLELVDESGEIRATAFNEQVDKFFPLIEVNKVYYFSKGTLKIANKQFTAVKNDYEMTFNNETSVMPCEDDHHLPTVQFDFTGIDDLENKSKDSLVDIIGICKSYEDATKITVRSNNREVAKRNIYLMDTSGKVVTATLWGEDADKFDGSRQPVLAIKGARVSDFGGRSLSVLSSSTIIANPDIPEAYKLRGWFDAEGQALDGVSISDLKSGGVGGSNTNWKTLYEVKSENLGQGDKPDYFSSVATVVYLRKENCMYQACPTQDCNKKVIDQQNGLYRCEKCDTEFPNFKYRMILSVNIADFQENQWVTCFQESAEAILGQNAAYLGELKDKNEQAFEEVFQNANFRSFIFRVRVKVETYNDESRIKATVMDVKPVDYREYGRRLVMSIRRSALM
Chain of PrimPol WT;RPA (P15927 whole entry, chain 3 of 3): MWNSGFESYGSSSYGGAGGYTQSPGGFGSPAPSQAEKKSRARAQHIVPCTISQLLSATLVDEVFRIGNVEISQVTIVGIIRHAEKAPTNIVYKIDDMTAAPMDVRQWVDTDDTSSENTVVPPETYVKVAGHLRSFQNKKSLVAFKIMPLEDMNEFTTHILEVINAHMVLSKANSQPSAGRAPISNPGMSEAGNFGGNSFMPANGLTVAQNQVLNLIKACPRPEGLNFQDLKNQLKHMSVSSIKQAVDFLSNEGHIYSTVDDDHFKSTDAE
Chain of PrimPol WT;RPA (P35244 whole entry, chain 4 of 3): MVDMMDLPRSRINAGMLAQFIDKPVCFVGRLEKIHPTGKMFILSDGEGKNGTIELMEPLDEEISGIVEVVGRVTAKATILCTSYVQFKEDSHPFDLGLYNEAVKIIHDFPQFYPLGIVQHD

Another data set has as its target T3, PrimPol363-560 (CTD) (Homo sapiens, UniProt Q96LW4 363-560).
T3 sequence: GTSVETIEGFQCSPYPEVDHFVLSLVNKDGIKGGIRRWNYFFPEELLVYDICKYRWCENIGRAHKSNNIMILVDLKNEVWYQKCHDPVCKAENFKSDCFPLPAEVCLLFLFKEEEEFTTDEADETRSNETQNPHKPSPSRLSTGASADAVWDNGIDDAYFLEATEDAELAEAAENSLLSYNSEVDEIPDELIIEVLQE
The data set can be described thus: EMSA; 1 mM Mn2+, 1-3 uM protein; EMSA: 40 mM HEPES pH 7.0, 50 mM KCl, 1 mM DTT, 5% glycerol, 0.1 mg/ml BSA, 1 mM MnCl2, 300 nM DNA, 24 C 20 min then ice (RPA assays: 50 nM DNA, 25 nM RPA, 8 C); 5% native PAGE, 0.5x Tris-glycine pH 8.3, 4 C. Particulars: protein: recombinant; tags: N-terminal SUMO-HIS10; label: 5' Cy5.

The target in the next data set is T4, PrimPol1-363 (NTD) (Homo sapiens, UniProt Q96LW4 1-363).
T4 sequence: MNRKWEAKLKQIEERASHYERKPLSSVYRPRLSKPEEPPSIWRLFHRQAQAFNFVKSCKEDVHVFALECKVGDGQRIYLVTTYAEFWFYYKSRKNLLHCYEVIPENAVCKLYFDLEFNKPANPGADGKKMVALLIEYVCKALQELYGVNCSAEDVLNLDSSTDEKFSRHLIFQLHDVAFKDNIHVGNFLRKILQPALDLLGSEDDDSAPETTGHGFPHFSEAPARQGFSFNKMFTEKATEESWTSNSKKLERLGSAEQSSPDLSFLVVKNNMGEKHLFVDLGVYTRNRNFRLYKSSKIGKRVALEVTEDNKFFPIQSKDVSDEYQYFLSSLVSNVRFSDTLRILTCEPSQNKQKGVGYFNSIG
The description is as above. Particulars: protein: recombinant; tags: N-terminal SUMO-HIS10; label: 5' Cy5.

Data set [3] has as its target T5, PrimPol1-363 (NTD);PrimPol363-560 (CTD) (Homo sapiens;Homo sapiens, UniProt Q96LW4;Q96LW4 1-363;363-560, |).
T5 sequence 1: T4 sequence
T5 sequence 2: T3 sequence
The data set can be described thus: EMSA; 1 mM Mn2+; separate NTD and CTD mixed; EMSA: 40 mM HEPES pH 7.0, 50 mM KCl, 1 mM DTT, 5% glycerol, 0.1 mg/ml BSA, 1 mM MnCl2, 300 nM DNA, 24 C 20 min then ice (RPA assays: 50 nM DNA, 25 nM RPA, 8 C); 5% native PAGE, 0.5x Tris-glycine pH 8.3, 4 C. As to conditions: protein: recombinant;recombinant, tags: N-terminal SUMO-HIS10;N-terminal SUMO-HIS10, copies: 1;1.

Data set [4] has as its target T1, PrimPol1-475 (RBM deleted). Description: EMSA; 1 mM Mn2+; EMSA: 40 mM HEPES pH 7.0, 50 mM KCl, 1 mM DTT, 5% glycerol, 0.1 mg/ml BSA, 1 mM MnCl2, 300 nM DNA, 24 C 20 min then ice (RPA assays: 50 nM DNA, 25 nM RPA, 8 C); 5% native PAGE, 0.5x Tris-glycine pH 8.3, 4 C. As to conditions: protein: recombinant; tags: N-terminal SUMO-HIS10; label: Cy5 at 5' of template; template 5' overhang 1 nt, 3' overhang 11 nt.

For data set [5], the target named is T2, PrimPol WT. Described as above. As to conditions: protein: recombinant; tags: N-terminal SUMO-HIS10; label: Cy5 at 5' of template; template 5' overhang 1 nt, 3' overhang 11 nt.

This passage reports binding result and Kd results from publication PMC10415149, “The role of catalytic and regulatory domains of human PrimPol in DNA binding and synthesis”.

The term Kd denotes the constant that tells how readily two partners part at equilibrium.

B1: Acctg55 (ssDNA)
DNA: AAAAAAAAAAAAAAAAAAAAAAAAAAAAAAAAAAAAAAAAACCTGAAAAAAAAAA
As to B1, the binding result (in data set [1]; with PrimPol WT [2]; in the data set with PrimPol WT;RPA) was “binds” each time.

B2: Cy5-Acctg24 (ssDNA)
DNA: AAAAAAAAAACCTGAAAAAAAAAA
Consider B2, for which the binding result in the data set with PrimPol363-560 (CTD) is recorded as “no binding”; in the data set with PrimPol1-363 (NTD), “binds”; in data set [3] (label: 5' Cy5) it was “no binding”.

B3: p-p-p-12/Cy5-Acctg24 (mixed)
DNA 1: AAAAAAAAAACCTGAAAAAAAAAA
DNA 2: AGGTTTTTTTTT
modifications: primer 5'-triphosphate; primer nt 1 is ribo-A, rest DNA
Consider B3, for which the dissociation constant Kd in data set [4] is 90 ± 10 nM; in the data set with PrimPol WT [5] it was 490 ± 130 nM.

B4: Template-55/Primer-18 (dsDNA)
DNA 1: GACTACATTTCATCTGGCTTGGGCTTCATCGTTGTCGCAGACCTGGTGGATACCG
DNA 2: CGGTATCCACCAGGTCTG
For the molecule B4, the binding result in data set [3] (label: 5' 32P on Primer-18, template 5' overhang 37 nt) is recorded as “binds”.
